{
  "source": "patent US10487337B2",
  "about": "“Methods for monocot plant improvement” (Agresearch Limited, priority 2014, dated 2019)",
  "molecules": {"B1": {"name": "TPL: TOPLESS transcriptional co-repressor of Arabidopsis, SEQ ID NO: 60 (protein)", "chain": "MSSLSRELVFLILQFLDEEKFKETVHKLEQESGFFFNMKYFEDEVHNGNWDEVEKYLSGFTKVDDNRYSMKIFFEIRKQKYLEALDKHDRPKAVDILVKDLKVFSTFNEELFKEITQLLTLENFRENEQLSKYGDTKSARAIMLVELKKLIEANPLFRDKLQFPTLRNSRLRTLINQSLNWQHQLCKNPRPNPDIKTLFVDHSCGPPNGARAPSPVNNPLLGGIPKAGGFPPLGAHGPFQPTASPVPTPLAGWMSSPSSVPHPAVSAGAIALGGPSIPAALKHPRTPPTNASLDYPSADSEHVSKRTRPMGISDEVNLGVNMLPMSFSGQAHGHSPAFKAPDDLPKTVARTLSQGSSPMSMDFHPIKQTLLLVGTNVGDIGLWEVGSRERLVQKTFKVWDLSKCSMPLQAALVKEPVVSVNRVIWSPDGSLFGVAYSRHIVQLYSYHGGEDMRQHLEIDAHVGGVNDISFSTPNKQLCVITCGDDKTIKVWDAATGVKRHTFEGHEAPVYSVCPHYKENIQFIFSTALDGKIKAWLYDNMGSRVDYDAPGRWCTTMAYSADGTRLFSCGTSKDGESFIVEWNESEGAVKRTYQGFHKRSLGVVQFDTTKNRYLAAGDDFSIKFWDMDAVQLLTAIDGDGGLQASPRIRFNKEGSLLAVSGNENVIKIMANSDGLRLLHTFENISSESSKPAINSIAAAAAAAATSAGHADRSANVVSIQGMNGDSRNMVDVKPVITEESNDKSKIWKLTEVSEPSQCRSLRLPENLRVAKISRLIFTNSGNAILALASNAIHLLWKWQRNERNATGKATASLPPQQWQPASGILMTNDVAETNPEEAVPCFALSKNDSYVMSASGGKISLFNMMTFKTMATFMPPPPAATFLAFHPQDNNIIAIGMDDSTIQIYNVRVDEVKSKLKGHSKRITGLAFSNVLNVLVSSGADAQLCVWNTDGWEKQRSKVLPLPQGRPNSAPSDTRVQFHQDQAHFLVVHETQLAIYETTKLECMKQWAVRESLAPITHATFSCDSQLVYASFMDATVCVFSSANLRLRCRVNPSAYLPASLSNSNVHPLVIAAHPQEPNMFAVGLSDGGVHIFEPLESEGKWGVAPPAENGSASGAPTAPSVGASASDQPQR", "modifications": "Consensus sequence"}},
  "molecular_target": "T1, BZR1 (Arabidopsis thaliana, UniProt Q8S307)",
  "T1 construct": "expressed in transfected cells; host or cells: yeast strain MaV203",
  "T1 sequence (Q8S307 with tags, fused parts or gaps)": "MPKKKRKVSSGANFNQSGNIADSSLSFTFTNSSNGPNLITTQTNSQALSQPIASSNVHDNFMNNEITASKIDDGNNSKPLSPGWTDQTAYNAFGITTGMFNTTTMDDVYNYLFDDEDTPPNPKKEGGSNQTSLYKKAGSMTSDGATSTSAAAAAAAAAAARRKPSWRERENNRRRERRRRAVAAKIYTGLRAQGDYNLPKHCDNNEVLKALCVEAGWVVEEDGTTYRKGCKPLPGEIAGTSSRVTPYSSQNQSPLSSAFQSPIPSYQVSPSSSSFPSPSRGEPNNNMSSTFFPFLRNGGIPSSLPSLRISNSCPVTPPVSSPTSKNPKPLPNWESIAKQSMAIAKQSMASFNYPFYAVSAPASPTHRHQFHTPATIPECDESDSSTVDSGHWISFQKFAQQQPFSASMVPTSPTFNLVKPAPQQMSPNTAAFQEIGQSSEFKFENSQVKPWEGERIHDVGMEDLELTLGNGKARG",
  "assay": "Yeast two hybrid (Y2H) interaction with BZR1",
  "assay_type": "binding",
  "description": "The constructs for Y2H and BiFC assays were generated as follows. Arabidopsis DNA sequences encoding the open reading frames for; At4g14713 (PPD1) and truncation and deletion derivatives of PPD1: PPD1; PPD1Δppd (N-terminal truncation of sequences encoding aa 1-61), PPD1Δtify, (internal deletion of sequences encoding aa 154-186), PPD1Δjas*(C-terminal truncation of sequences encoding aa 229-313) (FIG. 5), At4g28910 (NINJA), At1g15750 (TPL), At1g75080 (BZR1), a synthetic PUAS-35S promoter, and sequences encoding GAL4DBD and c-myc fusion proteins were synthesised and sequence verified by GeneArt. Most sequences were supplied as clones in pENTR221 ready for Gateway cloning into yeast and plant expression vectors. The exception, a promoter sequence for in planta transcription activation assays, incorporating 5′ Xho1 and 3′ Nco1 restriction enzyme sites, was supplied cloned in pMA-RQ. Plasmids for the transient LUC reporter assay: A synthetic promoter with 5×UAS GAL4 DNA binding sites upstream of a −105 bp CaMV35S promoter was cloned into the XhoI-NcoI sites within a dual luciferase construct pNWA62, which contains an intron-containing Firefly Luciferase gene (LUC) and 35Spro::Renilla Luciferase (REN) as an internal standard, to construct pAML7. […]",
  "data": [
    {"molecule": "B1", "values": [
      {"measurement": "interaction with BZR1", "value": "direct interaction occurs"}
    ]}
  ]
}
